What all share (experiment): SPR, Ab captured, ECD-His analyte
On the technique in general: Surface plasmon resonance follows binding to a sensor surface in real time, without labels.

The target in assay [1] is T1, cynomolgus SIRPα extracellular domain + His-tag (XP_015313155) (cynomolgus monkey).
T1 construct: also called CySIRPα XP_015313155; cynoSIRPα
T1 chain: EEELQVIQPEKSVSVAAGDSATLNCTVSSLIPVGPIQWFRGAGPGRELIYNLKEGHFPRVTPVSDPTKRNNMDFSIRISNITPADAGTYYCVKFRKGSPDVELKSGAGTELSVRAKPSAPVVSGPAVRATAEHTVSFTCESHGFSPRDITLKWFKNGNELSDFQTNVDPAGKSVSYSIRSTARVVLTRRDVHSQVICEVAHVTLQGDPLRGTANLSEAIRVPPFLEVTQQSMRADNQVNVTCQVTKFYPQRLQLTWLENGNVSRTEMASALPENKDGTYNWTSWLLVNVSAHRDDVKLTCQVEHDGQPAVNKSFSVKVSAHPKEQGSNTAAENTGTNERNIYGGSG
Here is the method: (§1) The binding affinity of anti-SIRPα antibodies to the various SIRPα analytes is determined by surface plasmon resonance (SPR) using a ProteOn XPR36 (Bio-Rad). The running buffer for this experiment and all dilutions (except where stated) are done in 1×HBS-EP+. […] The sensorchip is deactivated with 1M ethanolamine HCl for 420 sec at a flowrate of 10 μl/min.
(§2) The analyte is injected over the captured antibody for 300 sec at a flowrate of 30 μl/min. The dissociation is done for 600 sec. Two-fold serial dilutions of each SIRP protein (Extracellular Domain+His-Tag) are injected as analyte with the highest concentrations indicated in table 36 below.

Assay [2] has as its target T2, cynomolgus SIRPγ extracellular domain + His-tag (XP_005568591) (cynomolgus monkey, UniProt Q9P1W8 29-359 (human entry)).
T2 construct: also called Cyno SIRPγ; cynoSIRPγ
T2 chain: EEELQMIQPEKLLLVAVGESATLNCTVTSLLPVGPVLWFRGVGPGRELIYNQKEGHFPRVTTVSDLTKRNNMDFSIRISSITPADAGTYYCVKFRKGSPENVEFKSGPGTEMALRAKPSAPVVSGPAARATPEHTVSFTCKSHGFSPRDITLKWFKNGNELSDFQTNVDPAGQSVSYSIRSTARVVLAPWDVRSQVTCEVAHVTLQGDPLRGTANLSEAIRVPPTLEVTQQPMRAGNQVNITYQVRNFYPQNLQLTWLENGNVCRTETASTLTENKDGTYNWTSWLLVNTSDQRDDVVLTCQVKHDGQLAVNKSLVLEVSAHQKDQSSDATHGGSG
Here is the method:
as §1, §2

Assay [3] has as its target T3, cynomolgus SIRPβ1v3 extracellular domain + His-tag (XP_005568593) (cynomolgus monkey).
T3 construct: also called Cyno SIRPβ1v3; cynoSIRPβ1v3
T3 chain: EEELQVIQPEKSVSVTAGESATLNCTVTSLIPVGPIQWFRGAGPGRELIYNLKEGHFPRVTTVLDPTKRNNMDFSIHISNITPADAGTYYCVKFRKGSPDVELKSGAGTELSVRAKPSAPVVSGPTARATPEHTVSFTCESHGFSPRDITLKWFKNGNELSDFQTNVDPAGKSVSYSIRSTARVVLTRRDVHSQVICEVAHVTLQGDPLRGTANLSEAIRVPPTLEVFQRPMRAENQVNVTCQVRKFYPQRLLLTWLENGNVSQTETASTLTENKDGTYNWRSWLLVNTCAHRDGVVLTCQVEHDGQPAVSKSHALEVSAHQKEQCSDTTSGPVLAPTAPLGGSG
The method, then: as §1, §2

The target of assay [4] is T4, cynomolgus SIRPα extracellular domain + His-tag (EGM_02252) (cynomolgus monkey).
T4 construct: also called CySIRPα EGM_02252; cynoSIRPα
T4 chain: T1 chain with D19E, V27A, S28T, A42V, N51H, L52Q, V227F, T245M
Here is the method:
as §1, §2

In assay [5] the target is T5, cynomolgus SIRPβ1 extracellular domain + His-tag (XP_005568598) (cynomolgus monkey).
T5 construct: also called Cyno SIRPβ1; cynoSIRPβ1
T5 chain: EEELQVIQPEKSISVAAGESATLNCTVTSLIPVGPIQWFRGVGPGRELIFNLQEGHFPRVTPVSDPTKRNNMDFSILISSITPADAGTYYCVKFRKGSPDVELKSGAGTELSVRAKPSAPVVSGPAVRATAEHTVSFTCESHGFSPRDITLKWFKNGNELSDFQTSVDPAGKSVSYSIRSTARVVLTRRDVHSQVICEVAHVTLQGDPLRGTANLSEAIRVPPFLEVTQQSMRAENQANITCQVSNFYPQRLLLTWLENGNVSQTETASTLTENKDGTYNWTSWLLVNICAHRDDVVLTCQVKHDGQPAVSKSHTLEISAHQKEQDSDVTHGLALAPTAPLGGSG
Here is the method: as §1, §2

Assay [6] concerns the target T6, human SIRPβL/SIRPβ1v3 extracellular domain + His-tag (NP_001129316.1) (human, UniProt Q5TFQ8 30-371).
T6 construct: also called hSIRPβ1v3; HuSIRPβ1v3
The method, then:
as §1, §2

In assay [7] the target is T7, human SIRPγ extracellular domain + His-tag (NP_061026.2) (human, UniProt Q9P1W8 29-360).
T7 construct: also called hSIRPγ; HuSIRPγ
T7 sequence (Q9P1W8 29-360): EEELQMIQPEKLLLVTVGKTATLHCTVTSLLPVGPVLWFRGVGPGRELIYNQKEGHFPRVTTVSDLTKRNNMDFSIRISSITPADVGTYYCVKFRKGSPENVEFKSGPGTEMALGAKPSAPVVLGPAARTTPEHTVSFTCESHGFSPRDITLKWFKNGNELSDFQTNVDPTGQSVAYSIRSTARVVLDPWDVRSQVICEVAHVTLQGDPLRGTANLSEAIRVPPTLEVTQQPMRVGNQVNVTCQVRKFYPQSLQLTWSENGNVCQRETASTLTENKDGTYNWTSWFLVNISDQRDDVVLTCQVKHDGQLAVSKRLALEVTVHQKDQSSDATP
Here is the method:
as §1, §2

Assay [8] addresses T8, human SIRPβ1 extracellular domain + His-tag (NP_006056.2) (human, UniProt O00241 30-371).
T8 construct: also called hSIRPβ1; HuSIRPβ1
Here is the method: as §1, §2

Numbering of substitutions follows the chain as printed.

One may read the Kd as the equilibrium constant for the complex coming apart.

T6 sequence (Q5TFQ8 other isoform, or with tags, fused parts or gaps): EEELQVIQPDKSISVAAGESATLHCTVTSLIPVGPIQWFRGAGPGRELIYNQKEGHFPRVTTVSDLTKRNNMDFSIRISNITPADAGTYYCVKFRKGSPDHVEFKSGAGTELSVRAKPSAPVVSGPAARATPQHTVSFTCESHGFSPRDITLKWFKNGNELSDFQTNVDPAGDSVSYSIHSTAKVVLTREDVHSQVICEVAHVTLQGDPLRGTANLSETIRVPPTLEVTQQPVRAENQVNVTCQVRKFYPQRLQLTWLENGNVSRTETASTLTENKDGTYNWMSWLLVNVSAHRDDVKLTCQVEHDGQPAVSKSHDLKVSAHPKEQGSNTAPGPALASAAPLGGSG
T8 sequence (O00241 other isoform, or with tags, fused parts or gaps): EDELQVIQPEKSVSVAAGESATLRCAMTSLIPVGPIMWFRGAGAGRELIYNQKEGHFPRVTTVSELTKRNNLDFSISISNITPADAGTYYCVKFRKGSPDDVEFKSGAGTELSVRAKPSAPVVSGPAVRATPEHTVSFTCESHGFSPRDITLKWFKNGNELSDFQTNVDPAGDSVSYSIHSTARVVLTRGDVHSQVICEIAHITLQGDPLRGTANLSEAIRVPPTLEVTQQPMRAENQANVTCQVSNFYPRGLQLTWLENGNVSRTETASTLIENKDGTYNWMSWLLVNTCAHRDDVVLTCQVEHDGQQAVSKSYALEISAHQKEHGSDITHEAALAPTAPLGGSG

B1: Antibody A12 (antibody, human IgG1, kappa, L234A L235A, V domains shown)
VH: EVQLVESGGGLVQPGGSLRLSCAASGFTLSSYDMHWVRQATGKGLEWVSAIGTAGDTYYTGSVKGRFTISRENAKNSLYLQMNSLRASDTAVYYCVRGGVWDDAFDIWGQGTMVTVSS
VL: DIQMTQSPSSLSASVGDRVTITCRASQDINNYLAWFQQKPGKAPKSLIYTASSLHSGVPSKFSGSGSGTDFTLTISSLQPEDFATYYCQQYVSYPYTFGQGTKLEIKR
In the case of B1, the equilibrium dissociation constant (Kd) in assay [1] worked out at 182 nM; in assay [3] it was 279 nM; in assay [4], 249 nM; in assay [8] it was 64.4 nM. The binding result is recorded as “no binding (tested: 1000 nM)” in assay [2], “no binding (tested: 1000 nM)” in assay [5], “no binding (tested: 100 nM)” in assay [6] and “no binding (tested: 1000 nM)” in assay [7].

B2: Antibody A5 (antibody, human IgG1, kappa, L234A L235A, V domains shown)
VH: B1 VH with T41P
VL: B1 VL with D28G, L33A
With B2, the equilibrium dissociation constant (Kd) in assay [1] turned out to be 347 nM; in assay [3], 465 nM; in assay [4], 533 nM; in assay [8], 64.2 nM. Besides, the binding result is given as “no binding (tested: 1000 nM)” in assay [2], “no binding (tested: 1000 nM)” in assay [5], “no binding (tested: 100 nM)” in assay [6] and “no binding (tested: 1000 nM)” in assay [7].

B3: Antibody A14 (antibody, human IgG1, kappa, L234A L235A, V domains shown)
VH: B1 VH with T41P
VL: B1 VL
On to B3, for which the Kd in assay [1] was found to be 153 nM; in assay [3] it was 235 nM; in assay [4], 222 nM; in assay [8], 58.3 nM. Further, the binding result is recorded as “no binding (tested: 1000 nM)” in assay [2], “no binding (tested: 1000 nM)” in assay [5], “no binding (tested: 100 nM)” in assay [6] and “no binding (tested: 1000 nM)” in assay [7].

B4: Antibody A15 (antibody, human IgG1, kappa, L234A L235A, V domains shown)
VH: B1 VH with T41P, S88E
VL: B1 VL
With B4, the dissociation constant Kd in assay [1] amounted to 154 nM; in assay [3], 232 nM; in assay [4] it was 223 nM; in assay [8], 58.8 nM. Also, the binding result is on record as “no binding (tested: 1000 nM)” in assay [2], “no binding (tested: 1000 nM)” in assay [5], “no binding (tested: 100 nM)” in assay [6] and “no binding (tested: 1000 nM)” in assay [7].

B5: Antibody A13 (antibody, human IgG1, kappa, L234A L235A, V domains shown)
VH: B1 VH with T41P, S88A
VL: B1 VL
Regarding B5, the dissociation constant (Kd) in assay [1] is 160 nM; in assay [3], 238 nM; in assay [4], 226 nM; in assay [8] it was 61 nM. In addition, the binding result in assay [2] was “no binding (tested: 1000 nM)”; in assay [5], “no binding (tested: 1000 nM)”; in assay [6] it was “no binding (tested: 100 nM)”; in assay [7], “no binding (tested: 1000 nM)”.

B6: Antibody A16 (antibody, human IgG1, kappa, L234A L235A, V domains shown)
VH: B1 VH with T41P, S88G
VL: B1 VL
B6: the Kd turned out to be 151 nM in assay [1], 225 nM in assay [3], 225 nM in assay [4] and 62.7 nM in assay [8]. Moreover, the binding result is “no binding (tested: 1000 nM)” in assay [2], “no binding (tested: 1000 nM)” in assay [5], “no binding (tested: 100 nM)” in assay [6] and “no binding (tested: 1000 nM)” in assay [7].

The values are drawn from patent US20230012273A1 (Boehringer Ingelheim, published 2023).
